From patent US11672767

Key:
BMP2-PxSPCP NPs = molecular target: T1, BMP2-PxSPCP NPs (UniProt P12643)
T1 sequence 1: CGGKGGKFKTGG
T1 sequence 2: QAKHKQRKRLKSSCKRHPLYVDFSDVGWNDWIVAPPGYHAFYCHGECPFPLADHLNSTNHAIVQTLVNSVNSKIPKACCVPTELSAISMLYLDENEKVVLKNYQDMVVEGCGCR

BMP2-P5SPCP NPs = molecular target: T2, BMP2-P5SPCP NPs (UniProt P12643)
T2 sequence 1: CGGKGGKFKTGG
T2 sequence 2: T1 sequence 2

BMP2-PxSPCP NPs, P12643 = molecular target: T3, BMP2-PxSPCP NPs, P12643
T3 chain 1: CGGKGGKFKTGG
T3 chain 2: T1 sequence 2

plasmin
release of BMP2 from NPs co-encapsulated with plasmin in LPELA hydrogel, measured by BMP2 ELISA (BMP2-PxSPCP NPs): gradually released to the medium with incubation time at a rate faster than BMP2-PxSP NPs but slower than the free BMP2
cumulative release of BMP2 from NPs co-encapsulated with plasmin in LPELA hydrogel, measured by BMP2 ELISA (BMP2-P5SPCP NPs): the cumulative release of BMP2 from the encapsulated BMP2-P5SPCP NPs was 60% after 21 days

B1: plasmin secreted by the encapsulated cells (hMSCs) (protein)
chain: KVYLSECKTGNGKNYRGTMSKTKNGITCQKWSSTSPHRPRFSPATHPSEGLEENYCRNPDNDPQGPWCYTTDPEKRYDYCDILECEEECMHCSGENYDGKISKTMSGLECQAWDSQSPHAHGYIPSKFPNKNLKKNYCRNPDRELRPWCFTTDPNKRWELCDIPRCTTPPPSSGPTYQCLKGTGENYRGNVAVTVSGHTCQHWSAQTPHTHNRTPENFPCKNLDENYCRNPDGKRAPWCHTTNSQVRWEYCKIPSCDSSPVSTEQLAPTAPPELTPVVQDCYHGDGQSYRGTSSTTTTGKKCQSWSSMTPHRHQKTPENYPNAGLTMNYCRNPDADKGPWCFTTDPSVRWEYCNLKKCSGTEASVVAPPPVVLLPDVETPSEEDCMFGNGKGYRGKRATTVTGTPCQDWAAQEPHRHSIFTPETNPRAGLEKNYCRNPDGDVGGPWCYTTNPRKLYDYCDVPQCAAPSFDCGKPQVEPKKCPGRVVGGCVAHPHSWPWQVSLRTRFGMHFCGGTLISPEWVLTAAHCLEKSPRPSSYKVILGAHQEVNLEPHVQEIEVSRLFLEPTRKDIALLKLSSPAVITDKVIPACLPSPNYVVADRTECFITGWGETQGTFGAGLLKEAQLPVIENKVCNRYEFLNGRVQSTELCAGHLAGGTDSCQGDSGGPLVCFEKDKYILQGVTSWGLGCARPNKPGVYVRVSRFVTWIEGVMRNN
osteogenic activity (peak RUNX2 expression) of hMSCs co-encapsulated with the NPs (BMP2-PxSPCP NPs, P12643): The BMP2-PxSPCP NP groups showed significantly higher osteogenic activity compared to non-cleavable BMP2-PxSP NPs
